In the test the target is human IgE myeloma protein (American Biosystems, Inc. cat. no. A113) (human). The test is described as follows: ELISA negative control run with each assay (human IgE ELISA and peptide ELISAs). (An ELISA detects its analyte on a solid surface through an enzyme-linked reagent.)
Chain of human IgE myeloma protein (American Biosystems, Inc. cat. no. A113) (human) (heavy, as listed by the source): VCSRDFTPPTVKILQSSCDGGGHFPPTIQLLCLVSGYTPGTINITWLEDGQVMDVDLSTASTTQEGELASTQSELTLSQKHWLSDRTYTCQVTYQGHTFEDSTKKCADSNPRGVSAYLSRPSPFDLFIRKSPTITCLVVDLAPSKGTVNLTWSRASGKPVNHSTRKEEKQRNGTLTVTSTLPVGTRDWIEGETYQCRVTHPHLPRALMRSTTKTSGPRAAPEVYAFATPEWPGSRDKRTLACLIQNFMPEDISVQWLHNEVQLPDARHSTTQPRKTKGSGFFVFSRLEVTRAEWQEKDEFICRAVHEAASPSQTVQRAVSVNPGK

Substance “diluted normal guinea pig control samples (antibody)” registered an A492 of less than 0.15 A492.

Source of the values: patent US20050250934A1.
